Test results: a protein production outcome set (Wang et al. 2014)

Test: label from the status in PepcDB records
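Note: failed if final PepcDB status was selected cloned or expressed and not failed if soluble or beyond.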

Row | Sequence | protein production
1 | RLRHCNHHDPHGFYGWHETEAGSVIRTRQVGATQVNLLIDDTSHVMTPIGDDIFAIDLGHRERADYRLEVTWPDQEPQVKADPYYFLPTVG | failed
2 | SKGMALRSVGGMVIESPRNETEHWLLETVGRQAQQAGIGMPTVAIYDSADINAFATGAKRDDSLVAVSTGLLHNMTRDEAEAVLAHEVSHIANGDMVTMTLMQG | not failed
3 | MKLKTRICKKNSIRNSEKVEESSKSTTNCPLSCVDWSSNEEIYFVSDDHQIFKWSDVSRDSVEVAKLPDDFVPTDMHWLLLGGRSSGGGKGSDTLLICSNDGRFVILNKSARVERSISAHAAAISSGRWSPDGAGLLTAGEDGVIKIWSRSGMLRSTVVQNEESIRCARWAPNSNSIVFCQGGHISIKPLAANSKIIRWRAHDGLVLSLSWSTQSNIIASGGEDFRFKIWDAQGANLFTSAAEEYAITSVAFNPEKDYLLWSYNTARFSSPRVGSIFNLSWSADGTQATCGTSTGQLIVAYAIEQQLVSGNLKATSKSRKSITLKDIATGTQDILDFPQRVVSFGLGYGHLVVATTNQVHIYNEKYINTPIIIDGRNDTRVIEVGKKYFMILDALSIWVYTYTGRLHLNPRYPGSQAQIPLLTWRSLSLGLDVLAIRDNSDPTVLHLFDLIPGASRQYDPHSLRAKQQLVQIAACRAGSPEDQFVAFIDSNRELFVSESRNLNSERIDEIYKIGTQLTAIMWASETNILVGVHDSCYSIWYCPGEGASDPTIIALTTITLDTTEFGKHITIESFEESVLTFRSAGALLPVNVNMYCEILHRALLEGQWQQALKICRMGQHSSLWATLAAVATRKHQLQISEEAYSAALQIDKVSYLQHLKALTPSSAEQMAENSLMLGRMLEAETILLHGKKIEQAVGLALRMHNWRRALEISQKHKGEQPELVPRVLQERRKYLKALQREEWDPLYLPLVAKEEADNTSE | failed
4 | MDKMTSSKHYKESMTLLFEGSLRAIPFNIILATLLALDLVYSDVPALIIGAWFFGIVFISLVRSYFCWKIIKRGVEKNRIQATLIEFFLLTFVTGSIWGACYFITLPYVNDLHEFIIILVFGGMCAGAIASLSIYLPAYYAYVFPMLLPVIVYNYALLDVDRTMLATMFLIFIAMLIISAKINHRLLNENFRLFNEKELLINELKVMSITDSLSGLYNRRYFDNIFPQEFNRARRNQYFLSLVSIDIDNFKLINDNLGHPFGDKVLISIADLLKKIFRRSNDILFRLGGDEFAIIIANQPIKETISICETIKNPFKTENLNHTYDSNEQLFMSHVTLSIGIVYIHFESSASIEHAITAADKALYQAKKKGKNQIVVKKLL | failed
5 | MYFEIYKDAKGEYRWRLKAANHEIIAQGEGYTSKQNCQHAVDLLKSTTAATPVKEVLEHHHHHH | not failed
6 | MCGSERFQFRSGAKPLIRGRPLDSDMESLHPRVRLLWVLSTVIQASVLGVIAYLVDRFAVSLPQTVVVGGWVVLVLLGVAHAIAAHRIWRFDLQDDALFLLRGVVTRTDTSVPYVRVQHVDTTRGPVERAIGLASVVVYTAGTRGADITIPGLRPERATELREQLRDLANESEATDAV | failed
7 | MKAVFAKLGSDFFSTIVFVVLYFSTGNVALATIVAVLGAVGQFIYAKIKGQRLDVMAYASVALVVVLGGATLLTNDPRFVLIKPSVGHIAVGLLMLRRDWMLRYVPPIVAETIPDYVRIAGYAWAALMLLLGTGVIAAAMTGDIKVWTFYVMVIAPAFKVAAFAGQYLVFRIAIRSRRRAAVATAEPAASTPVTAEP | failed
8 | AGKQNEVELVAEKQLAFPLDEQTYYLSKSMFQFEENGKEYLHFENTQKSLYDIVIFDIENQQIAKRIPLHKTGPNGLPAVFGSRPSPDSQYILVAQNNISRLSSINSQGEIIRNYNFQTPEGRFTPLSFGSYYNAPAFIKDSCIFLRQEILKPDMKKEDWPRTHMFASQDLRTGEVKWIPIFYPPIFKEEYDNIAGGYGFSYDYNYKESRLVCGFFGYDSLMVTDDLKHIRWYNAKSRYLKSMKPKLGNSMEGINAIIKLNENPRYWHIMYDKYRNVYYRFAEMPYKLAPNESPYETPKGKEFSVIVLNADFEIIGETKFPGKKYFYKMSFVGREGLYISENNLENPQFDENKLVFTCFKIKNASPNK | not failed
9 | TLEQLPSAQSTLVSLDANNGALRALVGGFSFTANKFNRATQARRQPGSSFKPFVYSAALEKGFNPASIVPDAPVIFRDRRGHTWSPQNDDGKFQGPMRIRDALVQSRNLVSVRLLDAIGIDFARNYITQFGFEENEIPPNLSMSLGTASLTPLSIARGYAVFANGGFRIDPWLIDEIHDREHKLIFKNNPKVACSSCTSANTNVTQSTSHLVDGFNFGAPTKTEPSKPVKNNNEPTQTIPSPDPNTPMAPRAIDERVVFQLVSMMRDVVLRGTATAARSLNRQDIAGKTGSTNEHRDAWFSGFGGPYVTTVWVGRDDFQSLGYREYGGKAALPIWIEYMRTALKDKPIARN | failed
10 | MIIWQPDQKINNGRFIIQGKPLGEGGFGITYKALEPSTGKLYAIKTLNQQMQLLRSDFAEQQIKFINEALTIKGFDHPHILKVHEVIQEGELFGVVMEYIDGVTLFEYVQDKGQLSETEALLYVNQIGQALELIHQKQHLHRDIKPENILLRHTTRKAILIDFGLAREFTIDQTGSMTNAKTEGYAPPEQYERRGRFDAYVDVYALAATLYNLLTGKVPLPVNFRKAGIPLPPPKQFNSQISQRVNDAILKGMELEPQERTPTVLEFRKNLGLVSSGGAEVQLKSSVGMDYRQLRDLLAVGKWKEADAETARVMLAAMKREKEGWLREEDTWFFPCEDLRTIDQLWVKYSNGRFGFSVQKRIYQSLGGKRSYDEEIWRAFGDKVGWRKGGEWLYYKDITFDITAPEAHLPCYTLTIPYTSRGEVGYTDYSPGFGLWWWWGGGLFSRVETCKM | failed
11 | DSRQRFKRQMVEQAAPWLLELSARTGLVTDLSSFDGESLEVLESAVPEVLRKRYPSNSRIVGQHASLFHSAMGKACLGALASAEVERLAEQEQVPAEARQQCLESQHLGFGQRTEGHWEYPVRLPFLIRAVALPLQAEGRVIGSIALHWPRDLACVEQVRNRHLWLLAETVERVQKDI | failed
12 | MRRLLTAVLISTLGAASLVRADGPAPFSKVFEDISADQPGCAAGVMRGGKVIWSAGYGAADLTTGAAIQADTLFNLASVSKQFTGFAILQLQAQGRLSLEDPVRRFLPELPAYAQGIRIRHLLHHTSGLQDYMLLAELAGIPLSQRFTQQQALDLLVRQNSLMFPPGSEFSYSNSGYVLLSSIVERASGLSLKHYSRANIFLPLGMDHSSIVDQYPVQLPNLARGYEPGGQGKAQVAVDARWEQTGDGQVHSNVADLMRWLRNLSTGRVGGKALVENMRQTEPLNDGDPGYYGMGLANRSYRGLQELSHSGGWAGFNTDVAWYPKLDVATVVLCNSDDGRASERGRQLLDTLLGSPAPSGEADIPPPPPSIRALPKASLKTLVAGTYLDDGGHQLQLRRSGKGWSLETFPDVLPLTRQSDEVLVADNDGTPIYLAATSGGRIALNNPASTYALAPPWKPDDIRPYVGLYTLETSPGQLKVHARQGKLYVRIGLYTYPMQPLTAERFSAGELGVLSFAEQGAVLTSSVARNLRFGKVFAP | failed
13 | MSLPTEMHHNLGAEKRSAVATTIDSFKERSQKVRALSDPNVRFVPFFGSSEWLRFDGAHPAVLAEKYNRSYRPYLLGQGGAASLNQYFGMQQMLPQLENKQVVYVISPQWFSKNGYDPAAFQQYFNGDQLTSFLKHQSGDQASQYAATRLLQQFPNVAMKDLVQKLASKEELSTADNEMIELLARFNERQASFFGQFSVRGYVNYDKHVAKYLKILPDQFSYQAIEDVVKADAEKNTSNNEMGMENYFYNEQIKKDLKKLKDSQKSFTYLKSPEYNDLQLVLTQFSKSKVNPIFIIPPVNKKWMDYAGLREDMYQQTVQKIRYQLESQGFTNIADFSKDGGEPFFMKDTIHLGWLGWLAFDKAVDPFLSNPTPAPTYHLNERFFSKDWATYDGDVKEFQEGHHHHHH | not failed
14 | MAINPNPRSVVAVRATVPEDAFTAGALGTLREGSGVVIRNDGLVLTIGYLITEAEEVWLTAYDGRVIPAHALAYDQESGFGLVQALAPTGLPAVALGDAGKARIGDAVVLADGIGRAVEAKIVTKQEFAGYWEYLLDEAIFIAPAHPSWGGAPLFGADGALLGIGSLRLQMSRAGEVADINMVVPIDLLPPILDDLLTRGQVAKPPRPWLGALSAESDGKVVVMSVTEGGPAAKAGLRQGDVISEVRDGAVDGLADFYRKLWDSGSAGAEIPMRVVRDGRETWLRVKSADRGSFLKKPQLQ | failed
15 | MKTDWSHYLSVEMESTISNELSILCGAEVAFLGYSCSGKPYTFGSPSFQAVAERFLNREASSSLQRSVMNAHQQAKIQELCKVYNRMVEEAKTEEAKVKKAAALAETMPVDEDAWWKVDPKEVEDHEEAKKIMEKCEGLYEKLCNEAAARIQRGDAENNNK | failed
16 | MTNKAIKATNEELQQVYNDIPKAYDRANRFISFNQDVKWRADLVKTILKYCKRPKLILDVASGKGELSYTFKKIYKDNSNYEIILSDYAENMLKMALIKDDKVLCSFDALPFREKTFDIVMSSFALHASDNIEDVIREITRVSRKIVGFIAMGKPDSWVRRIYLSIYLKYIMPYIAVLGGAKARDFKYIYYIYERVPTNSQHKRIFEKYIDIKVYEERALNLFYFVVGFPKE | failed
17 | MSLAEFRAQYLVRFWSPIPALLALGVASAYYFAITGTFWAVTGEFTRWGGHIAALLGFSPQQWSYFQLIGLNGSPLERIDGVMIIGMFAGALCAALWAGNVQLRWPTSRRRLAQGLIGGIIAGFGARLAMGCNLAAFFTGIPMFSLHAWAFMLTTVIGAWIGVKLCLLPFLRTPLRLDTAPSSLFADTASLARRARLQNRLGLLIAVLVLGFAAWRFETSLVLGLAVLFGVFFGAVIERGQICFTSAARDLWTTGRTRIAYGILLGMVVACLGTFGAIALGATPKIFWMGPNAALGGLLFGIGIVLAGGCETGWMYRAMEGQVHFWIVGIGNVIGGTLVAIFWDELGGTLALPYPKINLLEYLGAGTGLLLSLAGLMLAMLLVYLNARRFAVREGLAR | failed
18 | MTAHPPRPELQIDIVSDVVCPWCIVGFRQLDQALAATGVLARLRWHPFELNPQMGPEGQNLREHIMEKYGSTPEQSAEARARLTAIGAELGFTFNFTDDSRIVNTFAAHQLLDWAEGQGRQHPLKQALFAAYFTDGRDVSDLSVLLDAVEAAGLDREAAQTALTSGAHQAPVREKQKFWAQHGISGVPSMVFGGKYLLTGAQGADTYAQVIQRCLAEAA | not failed
19 | MNIKEYLQQHPQWKKRIHGFIMHPVKTRPYWWIRVWQPFYIKKGRGSVIYSSVRKDLPPFHLFQMGKYSVVEDFSCLNNAVGDIVIGDYCRIGLGNTVIGPIRIDNGVNISQNVVLIGLDHNYQDITQGIIEQGITTSPIHIGEHTIIGANVIVLPGITIGKHCFIGAGCVVTQNIPDYCVTVGNPARIIKRYNPQSQTWEKI | failed
20 | MNIPAAEPRARMTLAEFHRLLADQHPFAQVLGIDVVDIGHGTARAVLPARDTHQRLGGIVAGPMLMGLADLTMYAAVVGATGQAGAVTANLTIHFLRKTSGAAVIADARVLKTGRLAMAEAILRCDGADEPVAHVVSAWAVPAP | failed
21 | MDNPCPTCGQELEWTGQYHCSACTVDYCKVGFCPECGSELEKLQACGAANYFCNQCNELKSKSKIRFVFQPLNGNSQLEHHHHHH | not failed
22 | MGHHHHHHSHMSFVECPYHSPAERLVAEADEGGPSAITGMGLCFRCLLFSFSGRSGVEGGRVDLNVFGSLGLQPWIGSSRCWGGPCSSALRCGWFSSWPPPSKSAIPIGGGSRGAGRVSRWPPPHWLEAWRVSPRPL | failed
23 | MKLIRVTLFLCALAILLLVTPTSSLQLKHPYSSPSQGLSKKIVTKMATRKLMIISSEYVMTSTSHEGSSEQLRVTSSGKSKDEEKKLSEEEEEKKALAKYLSMDYRTFRRRRPVHNKALPLDP | failed
24 | RKILDSKAIDLMNALMRLNQIRPGLQYKLLSQSGPVHAPVFTMSVDVDGTTYEASGPSKKTAKLHVAVKVLQAMGYPTGFDADI | not failed
